Measured values taken from the supplement of paper PMC9112550, “Optimization of the antimicrobial peptide Bac7 by deep mutational scanning” (BMC Biology, 2022).

System: Escherichia coli TOP10
Assay: shrunken log2 fold change of peptide-encoding DNA abundance (4.5 h post-induction vs induction); higher = less antimicrobial activity (less host growth inhibition)
Conditions: time post-induction: 4.5 h; library: site-saturation at positions 5, 18, 19, 20
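Further: peptides expressed intracellularly from a pBAD plasmid library in pooled LB shake-flask culture, induced with 0.3% L-arabinose, DNA abundance read by NGS, three biological replicates, DESeq2 with apeglm shrinkage.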

Sequence	shrunken log2 fold change
RRIRARPPRLPRPRPRPVITPRP	-0.021
RRIRGRPPRLPRPRPRPEREPRP	1.1
RRIRTRPPRLPRPRPRPQAIPRP	0.209
RRIRARPPRLPRPRPRPVQHPRP	0.555
RRIRNRPPRLPRPRPRPKSIPRP	-0.569
RRIRPRPPRLPRPRPRPGNAPRP	0.34
RRIRERPPRLPRPRPRPNPWPRP	-0.0758
RRIRSRPPRLPRPRPRPIMWPRP	-0.109
RRIRARPPRLPRPRPRPLSPPRP	0.0788
RRIRIRPPRLPRPRPRPRDHPRP	-0.0591
RRIRDRPPRLPRPRPRPPHGPRP	0.294
RRIRYRPPRLPRPRPRPPWRPRP	0.331
RRIRLRPPRLPRPRPRPRPDPRP	0.177
RRIRWRPPRLPRPRPRPECKPRP	0.685
RRIRCRPPRLPRPRPRPEVRPRP	0.24
RRIRMRPPRLPRPRPRPNWDPRP	0.0485
RRIRFRPPRLPRPRPRPTVGPRP	-0.142
RRIRSRPPRLPRPRPRPEIPPRP	2.86
RRIRQRPPRLPRPRPRPVNHPRP	-0.212
RRIRARPPRLPRPRPRPGAVPRP	0.578
RRIRGRPPRLPRPRPRPVYYPRP	0.164
RRIRKRPPRLPRPRPRPIIVPRP	0.0373
RRIRCRPPRLPRPRPRPWWHPRP	-0.523

Sequence	shrunken log2 fold change
RRIRNRPPRLPRPRPRPQSDPRP	-0.174
RRIRSRPPRLPRPRPRPPYMPRP	-0.316
RRIRSRPPRLPRPRPRPWSKPRP	-0.405
RRIRPRPPRLPRPRPRPYHRPRP	-0.00884
RRIRHRPPRLPRPRPRPCDNPRP	-0.207
RRIRLRPPRLPRPRPRPHERPRP	0.274
RRIRARPPRLPRPRPRPDIAPRP	0.668
RRIRSRPPRLPRPRPRPKVCPRP	0.00182
RRIRDRPPRLPRPRPRPDMIPRP	0.0954
RRIRKRPPRLPRPRPRPRDIPRP	0.246
RRIRERPPRLPRPRPRPYRHPRP	-0.0262
RRIRARPPRLPRPRPRPWPPPRP	0.887
RRIRFRPPRLPRPRPRPWLYPRP	-1.2
RRIRWRPPRLPRPRPRPQNPPRP	-0.0448
RRIRPRPPRLPRPRPRPPCQPRP	0.268
RRIRSRPPRLPRPRPRPEMNPRP	0.0588
RRIRFRPPRLPRPRPRPMLHPRP	-0.376
RRIRQRPPRLPRPRPRPDKVPRP	-0.0238
RRIRCRPPRLPRPRPRPKHYPRP	-0.518
RRIRRRPPRLPRPRPRPMLAPRP	0.983
RRIRNRPPRLPRPRPRPRWFPRP	0.173
RRIRQRPPRLPRPRPRPFPPPRP	-0.0272
RRIRFRPPRLPRPRPRPYNFPRP	-0.458

Sequence	shrunken log2 fold change
RRIRSRPPRLPRPRPRPSQTPRP	-0.128
RRIRKRPPRLPRPRPRPNNDPRP	0.0263
RRIRPRPPRLPRPRPRPHGRPRP	-0.0223
RRIRMRPPRLPRPRPRPKGWPRP	1.75
RRIRGRPPRLPRPRPRPIMRPRP	0.818
RRIRSRPPRLPRPRPRPTEPPRP	0.161
RRIRWRPPRLPRPRPRPPLCPRP	0.668
RRIRFRPPRLPRPRPRPTKVPRP	-0.157
RRIRWRPPRLPRPRPRPFMIPRP	-0.798
RRIRTRPPRLPRPRPRPFMAPRP	-0.0759
RRIRVRPPRLPRPRPRPWVVPRP	-0.0754
RRIRERPPRLPRPRPRPNGAPRP	0.0556
RRIRDRPPRLPRPRPRPAWMPRP	-0.0284
RRIRNRPPRLPRPRPRPWHSPRP	-0.496
RRIRRRPPRLPRPRPRPATIPRP	-0.0623
RRIRCRPPRLPRPRPRPENSPRP	-0.0484
RRIRWRPPRLPRPRPRPWHFPRP	-0.265
RRIRMRPPRLPRPRPRPKFAPRP	0.51
RRIRGRPPRLPRPRPRPNWCPRP	-0.0123
RRIRVRPPRLPRPRPRPCPVPRP	-0.0687
RRIRFRPPRLPRPRPRPMQMPRP	0.142
RRIRNRPPRLPRPRPRPMICPRP	0.0101
RRIRGRPPRLPRPRPRPITDPRP	0.0223

Sequence	shrunken log2 fold change
RRIRWRPPRLPRPRPRPYDKPRP	-0.534
RRIRDRPPRLPRPRPRPMCNPRP	-0.0221
RRIRVRPPRLPRPRPRPHVVPRP	-0.479
RRIRDRPPRLPRPRPRPNGYPRP	-0.36
RRIRPRPPRLPRPRPRPRRRPRP	0.41
RRIRWRPPRLPRPRPRPSAWPRP	0.319
RRIRVRPPRLPRPRPRPAWTPRP	-0.0585
RRIRTRPPRLPRPRPRPPVPPRP	0.139
RRIRWRPPRLPRPRPRPTKCPRP	-0.121
RRIRRRPPRLPRPRPRPIGLPRP	-0.0953
RRIRKRPPRLPRPRPRPHPFPRP	0.188
RRIRPRPPRLPRPRPRPLLLPRP	-0.208
RRIRIRPPRLPRPRPRPKYGPRP	-0.284
RRIRDRPPRLPRPRPRPSDEPRP	0.406
RRIRYRPPRLPRPRPRPHQSPRP	0.0552
RRIRHRPPRLPRPRPRPEDIPRP	-0.00674
RRIRHRPPRLPRPRPRPQICPRP	0.00386
RRIRDRPPRLPRPRPRPQSDPRP	-0.0119
RRIRHRPPRLPRPRPRPKLCPRP	-0.114
RRIRTRPPRLPRPRPRPGQCPRP	0.013
RRIRTRPPRLPRPRPRPMTFPRP	0.0754
RRIRYRPPRLPRPRPRPTCFPRP	-0.222
